Experiments:
[1] = biological target: K48-linked diubiquitin (UniProt P0CG48); experiment: ITC; details: domain or fragment
[2] = biological target: K63-linked diubiquitin (UniProt P0CG48); experiment: ITC; details: domain or fragment

Sequence of GB1-HSJ1a-UIM12 (UIM domain of HSJ1a, residues 206-272, fused to GB1) (P25686 206-272): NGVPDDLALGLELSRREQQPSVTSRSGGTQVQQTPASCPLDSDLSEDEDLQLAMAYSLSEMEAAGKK

Kd [1]: 57 µM | Kd [2]: 153 µM
Substance: GB1-HSJ1a-UIM12 (UIM domain of HSJ1a, residues 206-272, fused to GB1) (from UniProt P25686-2 206-272)
